This passage reports stoichiometry N results from paper doi:10.1101/235556.

The target in this test is Polyhydroxyalkanoate synthase PhaC from Aquitalea sp. USM4 (JCM 19919) (Aquitalea sp. USM4 (JCM 19919)). Kind of test: SEC.

Turning to “Polyhydroxyalkanoate synthase PhaC from Aquitalea sp. USM4 (JCM 19919) (enzyme)”, the stoichiometry N was 2.
